# From patent publication US9968687B2, “Anti-DLL3 antibody drug conjugates” (AbbVie Stemcentrx LLC, priority 2013, dated 2018)
# Residue numbers refer to the chain shown, from its start.
# T1: murine DLL3 (Mus musculus, UniProt O88516)
# T1 construct: expressed in transfected cells; host or cells: 293 (HEK-293T) cells
# T1 sequence (O88516 33-585 isoform O88516-2 limits assumed): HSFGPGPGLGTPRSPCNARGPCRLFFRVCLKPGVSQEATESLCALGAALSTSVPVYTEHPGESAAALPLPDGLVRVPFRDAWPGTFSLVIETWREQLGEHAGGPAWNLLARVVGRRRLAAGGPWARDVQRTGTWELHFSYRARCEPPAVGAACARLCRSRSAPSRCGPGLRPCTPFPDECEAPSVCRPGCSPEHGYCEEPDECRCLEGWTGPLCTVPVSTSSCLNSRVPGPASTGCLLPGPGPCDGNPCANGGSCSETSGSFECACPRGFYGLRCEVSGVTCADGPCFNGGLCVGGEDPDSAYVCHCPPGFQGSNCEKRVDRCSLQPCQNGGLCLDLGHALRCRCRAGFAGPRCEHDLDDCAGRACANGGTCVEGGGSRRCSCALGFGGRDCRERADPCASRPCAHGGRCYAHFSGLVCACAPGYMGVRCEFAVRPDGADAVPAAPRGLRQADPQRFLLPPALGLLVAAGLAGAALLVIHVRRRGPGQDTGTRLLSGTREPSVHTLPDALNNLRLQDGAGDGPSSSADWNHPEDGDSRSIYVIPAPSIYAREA
# T2: human DLL3 antigen (Homo sapiens, UniProt Q9NYJ7)
# T2 sequence (Q9NYJ7 27-618): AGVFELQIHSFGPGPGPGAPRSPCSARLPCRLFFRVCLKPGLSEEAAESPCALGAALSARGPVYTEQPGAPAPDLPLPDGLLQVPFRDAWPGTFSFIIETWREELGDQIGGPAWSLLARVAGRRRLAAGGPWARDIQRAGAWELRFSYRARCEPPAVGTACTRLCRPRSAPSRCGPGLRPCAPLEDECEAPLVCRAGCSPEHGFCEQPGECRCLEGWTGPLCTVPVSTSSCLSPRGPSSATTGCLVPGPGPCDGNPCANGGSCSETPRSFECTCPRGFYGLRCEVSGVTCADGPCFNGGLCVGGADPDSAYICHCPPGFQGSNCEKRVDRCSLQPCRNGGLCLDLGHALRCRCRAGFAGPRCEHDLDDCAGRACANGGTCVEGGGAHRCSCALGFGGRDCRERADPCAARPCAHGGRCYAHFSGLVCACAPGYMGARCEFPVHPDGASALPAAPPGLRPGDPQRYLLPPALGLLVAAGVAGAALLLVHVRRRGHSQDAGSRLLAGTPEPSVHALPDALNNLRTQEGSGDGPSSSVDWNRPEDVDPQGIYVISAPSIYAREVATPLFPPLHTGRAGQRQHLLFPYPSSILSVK
# B1: SC16.13: murine anti-DLL3 monoclonal antibody, sequences in FIGS. 3A and 3B (antibody, V domains shown)
# VL: QIVLTQSPALVSASPGEKVTMTCSASSSVSYMYWYQQKPRSSPKPWIYLTSNLASGVPARFSGSGSGTSYSLTISSMEAEDAATYYCQQWRSNPFTFGSGTKLEIK
# VH: QVTLKESGPGILQPSQTLSLTCSFSGFSLSTSGMGVGWIRQPSGKGLEWLAHIWWDDVKRYNPALKSRLTISKDTSSSQVFLKIASVDTADTATYYCARIVSFDNDVVSAMDYWGQGTSVTVSS
# B2: SC16.65: murine anti-DLL3 monoclonal antibody, sequences in FIGS. 3A and 3B (antibody, V domains shown)
# VL: B1 VL with V11M, A25V, S26T, M77V, S92N, L103V
# VH: B1 VH with H52L, T75A, V101A, F103Y, N105Y, S109Y, T121S
# B3: SC16.15: murine anti-DLL3 monoclonal antibody, sequences in FIGS. 3A and 3B (antibody, V domains shown)
# VL: DIQMTQSPASLAASVGETVAITCRASENIYYNLAWYQQKQGKSPQLLIYTANSLEDGVPSRFSGSGSGTQYSLKINSMQPEDSATYFCKQAYDVPPTFGGGTKLEIK
# VH: QVQLQQSGAELAKPGASVKMSCKASGYTFTRYWIHWIKQRPGQGLEWIGYINPTTVYTEFNQNFKDKATLTADKSSTTASMQLSSLTSEDSAVYYCARGGSNFFDYWGQGTTLTVSS
# B4: SC16.25: murine anti-DLL3 monoclonal antibody, sequences in FIGS. 3A and 3B (antibody, V domains shown)
# VL: QIVLTQSPAIMSASPGEKVTMTCSASSSVSYMHWYQQKSGTSPKRWIYDSSKLASGVPARFSGSGSGTSYSLTISSMEAEDAATYYCQQWSSNPLTFGAGTKLELK
# VH: QVTLKESGPGILQPSQTLSLTCSFSGFSLSTSGMGVGWIRQPSGEGLEWLTDIWWDDNKYYNPSLKSRLTISKDTSSNQVFLNITSVDTADTATYYCARRVNYYYDPYYAMDYWGQGTSVTVSS
# B5: SC16.8: murine anti-DLL3 monoclonal antibody, sequences in FIGS. 3A and 3B (antibody, V domains shown)
# VL: EIQMTQSPSSMSASLGDRITITCQATQDIVKNLNWYQQKPGKPPSFLIYYAIELAEGVPSRFSGSGSGSDYSLTISNLESEDFADYYCLQFYEFPFTFGAGTKLELK
# VH: QAQLQQSGAELVRPGTSVKVSCKASGYAFTNYLIEWVKQRPGQGLEWIGVINPGTGGTNYNENFKGKATLTADKSSSTAYMQLSSLTSDDSAVYFCARSPYDYHEGAMDYWGQGTSVTVSS
# B6: SC16.34: murine anti-DLL3 monoclonal antibody, sequences in FIGS. 3A and 3B (antibody, V domains shown)
# VL: SIVMTQTPKFLLVSAGDRVTITCKASQSVSNDVAWYQQKPGQSPKLLIYYASNRYSGVPDRFTGSGYGTDFTFTISTVQAEDLAVYFCQQDYSSPWTFGGGTKLEIK
# VH: QIQLVQSGPELKRPGETVKISCKASGYTFTNYGMNWVKQAPGKGLKWMGWINTYTGDPTYADDFKGRFAFSLETSASTAYLQINNLKNEDTATYFCARIGGNSPSDYWGQGTSLTVSS
# B7: SC16.56: murine anti-DLL3 monoclonal antibody, sequences in FIGS. 3A and 3B (antibody, V domains shown)
# VL: B6 VL with A34V, S56T, T63A, T72S, S93T, K107R
# VH: B6 VH with R13K, G49A, D57E, Y80S, N84I, G101D, N102S, S113T
# B8: SC16.4: murine anti-DLL3 monoclonal antibody; VL/VH SEQ ID NOS: 25 and 27 (antibody, listed as Mus musculus, V domains shown)
# VH: QIQLVQSGPELKKPGETVKISCKASGYTFTDYSMHWVKQAPGKGLKWMGWINTETGEPGYADDFKGRFAFSLETSASTAYLQINNLKNEDTATYFCARYDGYAMDYWGQGTSVTVSS
# VL: DIQMTQTTSSLSASLGDRVTISCRASQDISNYLNWYQQKPDGTVKLLIYYTSRLHSGVPSRFSGSGSGTDYSLTISNLELEDIATYFCQQGDMLPWTFGGGTKLEIK
# B9: SC16.10: murine anti-DLL3 monoclonal antibody, sequences in FIGS. 3A and 3B (antibody, V domains shown)
# VL: QIVLTQSPAIMSASLGERVTMTCTASSSVSSSYLHWYQQKPGSSPKLWIYSTSNLASGVPTRFSGSGSGTSYSLTISSMEAEDAATYYCHQYHRSPFTFGSGTKLEIK
# VH: QVTLKESGPGILQSSQTLSLTCSFSGFSLSTSGMGVGWIRQPSGKGLEWLAHIWWDDVKRYNPVLKSRLTISKDTSSSQVFLKIASVDTADTATYYCARLVDDLYYFDYWGQGTTLTVSS
# Biological target: T1, murine DLL3
# Test: Flow cytometry on 293 cells over-expressing murine DLL3
# Type: binding
# Settings: not given
# Experimental: In addition to evaluating the exemplary modulators as set forth above, flow cytometry was performed in order to confirm that selected SC16 antibody modulators can immunospecifically associate with human DLL3 and to determine whether the same antibodies cross-react with cynomolgus, rat and/or murine DLL3. More particularly the exemplary murine antibodies were analyzed by flow cytometry using a FACSCanto II and 293 cells over-expressing murine, rat, cynomolgus or human DLL3. In some cases, exemplary murine modulators were analyzed by flow cytometry using a FACSCanto II and yeast cells displaying cynomolgus DLL3 using the methods described by Cochran et al. (J Immunol Methods. 287 (1-2):147-158 (2004).
# Such results are not unexpected given that murine DLL3 is approximately 83% homologous with isoform 2 of human DLL3. It will be appreciated that this cross-reactivity may be advantageously exploited in the context of the instant invention through the use of animal models in drug discovery and development.
row,Molecule,cross-reactivity with murine DLL3
1,B1,did not appreciably associate with murine DLL3
2,B2,did not appreciably associate with murine DLL3
3,B3,cross-react with murine DLL3 to a greater or lesser extent
4,B4,did not appreciably associate with murine DLL3
5,B5,cross-react with murine DLL3 to a greater or lesser extent
6,B6,cross-react with murine DLL3 to a greater or lesser extent
7,B7,cross-react with murine DLL3 to a greater or lesser extent
8,B8,cross-react with murine DLL3 to a greater or lesser extent
9,B9,did not appreciably associate with murine DLL3

# Biological target: T2, human DLL3 antigen
# Test: Surface plasmon resonance (Biacore 2000), humanized versus chimeric constructs
# Settings: concentration series of 25 and 12.5 nM human DLL3 antigen, 1:1 Langmuir binding model, estimated, read-out: KD of antibody binding to human DLL3 antigen
# Experimental: Besides the aforementioned assays, humanized constructs hSC16.13, hSC16.15, hSC16.25, hSC16.34 and hSC16.56 from Example 4 were analyzed to determine if the CDR grafting process had appreciably altered their binding characteristics. In this respect the humanized constructs (CDR grafted) were compared with “traditional” chimeric antibodies comprising the murine parent (or donor) heavy and light chain variable domains and a human constant region substantially equivalent to that used in the humanized constructs. With these constructs surface plasmon resonance (SPR) was conducted using a Biacore 2000 (GE Healthcare) to identify any subtle changes in rate constants brought about by the humanization process.
# Based on a concentration series of 25 and 12.5 nM of human DLL3 antigen and using a 1:1 Langmuir binding model, the KD of the SC16.15 antibody binding to human DLL3 antigen was estimated to be 0.2 nM.
row,Kd [nM],Molecule
1,~0.2,B3
